Reference: the nanobody polyreactivity screen of Harvey et al. (2022)

Assay: yeast display, Sf9 membrane polyspecificity reagent, FACS + sequencing; frameworks hold sequencing errors
Procedure, shortened: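 In a synthetic yeast display library (Saccharomyces cerevisiae BJ5465), nanobody expression was induced with galactose for 36–48 hours. FACS gates were set low and high (top ~1%) using anti-HA fluorescence for expression and streptavidin fluorescence for binding of the Sf9 membrane reagent. Each polyreactivity label is drawn from the gate of origin.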

Sequence | polyreactivity (PSR sort gate)
QVQLVESGGGLVQAGGSLRLSCAASGSTFYPNAMGWYRQAPGKERELVAAISWSGGRTYYADSVKGRFTISRDNAKNTVYLQMNSLKPEDTAVYYCNAARYPSSWYYKLDYWGQGTQVTVSS | high polyreactivity
QVQLVESGGGLVQAGGSLRLSCAASGRIFPAYVMGWYRQAPVKERELVATIDNGGGTYYADSVKGRFTISRDNAKNTVYLQMNSLKPEDTAVYYCARDRHVRWGLKMDYWGLGTQVTVSS | low polyreactivity
QVQLVESGGGLVQAGGSLRLSCAASGRTLYYNTMGWYRQAPGKERELVASIRWDGGSTNYADSVNGRFTISRDNAKNTVYLQMNSLKPEDTAVYYCNADPGWTELEYDYWGQGTQVTVSS | low polyreactivity
QVQLVESGGGLVQAGGSLSLSCAASGSTYARYTMGWYRQAPGKERELVAAISGRGGSTYYADSVKGRFTISRDNAKNTVYLQMNSLKPEDTAVYYCAAHDTYHSYGLYSWGQGTQVTVSS | low polyreactivity
QVQLVESGGGLVQAGGSLRLSCAASGSTFDTNAMGWYRQAPGKERELVAAISASGGSTYYADSVKGRFTISRDNAKNTVYLQMNSLKPEDTAVYDCAAKTRGQQRKFDYWGQGSQVTVSS | high polyreactivity
QDQLVESGGGLVQAGGSLRLSCAASGITFQYYAMGWYRQAPGKERELVAAITKRGGSTYYADSVKGRFTISRDNAKNTVYLQMKSLKPEDTAVYYCAADYGSWRNYIFLDDYWGQGTQVTVSS | high polyreactivity
QVQLVESGGGLVQAGGSLRLSCAASGRTFNYYNMGWYRQAPGKERELVAAISRGGTTYYADSVKGRFTISRDNAKKTVYLQMNSLKPEDTAVYYCAVAYAPRVQTVWSYVSGSTYYSWGQGTQVTVSS | high polyreactivity
QVQLVESGGGLVQAGGSLRLSCAASGFIFPGNVMGWYRQAPGKERELVAAITWSGGSTYYADSVKGRFTISRDNAKNTVYLQMNSLKPEDTAVYYCNADAFSFFGYLERMEYWGQGTLVTVSS | low polyreactivity
QVQLVESGGGLVQAGGILSLSCAASGSTFPYNAMGWYRQAPGIERQLVAAISSGGSTYYADSVKGRFTNSRDNAKNTVYLMMNRLKPEDTAVYYCAASWGKYIRSWGYGYWGQGTLVTVSS | high polyreactivity
QVQLVESGGSLVQAGGSLRLSCDASGRTFGTNAMGWYRQAPRKETELVAAISWRGTSTYYADSVKGRFTNSRDNAKNTVYLQMNSLKPEDTAVYYCAARGYRADQWEYDYWGQGTQVTVSS | low polyreactivity
QVQVVESGGGLVQPGGSLRLSCAASGFIFFRYDMGWYRQAPGKERELVAAITDDGSTYADSVKGRFTISRDNAKNNVYLQMNSLKPEDTAVYYCNVQSKSSYWWYGYDYWGQGTQVTVSS | low polyreactivity
QVKLVESGGGLVQAGGRLRLSCAASGSIFTYYAMGWYRQAPGKERELVAAISYGGGSTYYADSVKGRFTISRDNAKYTVYLQMNSLKPEDTAVYDCNGVLGVNYGYWGQGTQVTVSS | high polyreactivity
QVQLVESGGGLVQAGGSLRLSCAASGFTFWYYAMGWYRQAPGKEREFVASISWNGGRTYYADSVKGRITISRDNAKNTVYLQMNSLKPEDTAVYYCATRVIYSFTDLKGDYWGQGTLVTVSS | high polyreactivity
QDQLVESGGGLVQAGGSLRLSCAASGLIFKYNAMGWSRQAPGKERELVADINRSGGSTYYADSVKGRFTISRDNSKNTVSLQMNSLKPEDSAVYDCAAERVSLYWVIFGYWGQGTQVTVSS | low polyreactivity
QVQLVESGGGLDQAGRSLRLICAASVFTIHAYAMGRYRQAHGKERELVAAISASGGSTYYADSVKGRFTISRDNANNTVYLKMNSLKPEDTAVYYCNAGDYRTFYRRFDYWGQGTQVTVSS | low polyreactivity
QVQLVESGGGLVQAGGSLRLSCAASGSIYSNAMGWYRPAPGKERELVAAISGSGSTTYYADSVKGRFTISRDNAKNTVYLQMNSLKPEDTAVYYCARGVYGRGRTERYYWGQGTQVIVSS | high polyreactivity
QVQLVESGGGLVQAGGSLRLSCAASGSILAVNAMGWYRQAPGKERELVAAISSRGGSTSYADSVKGRFTISRDNAKNTVYLQMNSLKPEDTAVYYCAVRAVRRLRTSVPVRFYYWGQGTQVTVSS | high polyreactivity
QVQLVQSGGGLVQAGGILRLSCAASGRTFSTNAMGRYIQAPGKERQLVAAITYGSSSTYYADSVKGRFTISRDNAKNTVYFKMNCLKPEDTAVYDCAAGGFFTHRRTYGYWGQGTQVTVSS | high polyreactivity
QVQLVESGGGLVQAGGSLRLSCAASGSIFYGYAMGWYRQAPGKERELVAAIRSRGGSTYYADSVKGRFTNSRDNEKNTVYLQMKCLKPEDTAVYYCNAVCRARTLCSNTYGYWGQGTQVSVSS | high polyreactivity
QVQLVESGGGLVQAGGSLRLSCAASGRIFWFNAMGWYRQAPGKERELVAAISGGSTNYADSVKGRFTISRDNAKNTVYLQMNSLKPEDTAVYYCAARYLRRYNWGQGTQVTVSS | high polyreactivity
QVQLVESGGGLVQAGGSLRLSCAASGITSRYYAMGWYRQAPGKERELVAAITSDGRTNYADSVKGRFTISRDNAKNTVYLQMNSLKPEETAVYYCAVARYPYRYDYWGQGTQVTVSS | high polyreactivity
QVQLVESGGGLVQAGGSLRLSCAAYYAMGWYRQAPVKERELVAAISSTGRTNYADSVKGRFTISRDNAKNTVYLQMNSLKPEDTAVYYCAAEWHYIYAYDYWGQGTQVTVSS | low polyreactivity
QVQLVESGGGLVQAGGSLRLSCAASGRIFTWYAMGWYRTAPGKERELVATITGDGNTYYADSVKGRFTISRDNAKNTVYLQMKSLKPEDTAVYYCNRYGYFRYRWGKYEYWGQGTQVTVSS | high polyreactivity
QVQHVESGARLVQAGGSLRLSCAASGHIFFDYTMGWSRQAPGKERELVAGITIGGSTNYADSVKGRFTISRDNAKNTVYLQMNSLKPEDTAVYYCNVVKYVYIYSYWEYYYWGQGTQVTVSS | low polyreactivity
QVQLVESGGGLVQAGGSLRFSCAASGGTFFLNVMGWYRPAPGKERELVAAITNSAGSTYYADSVKGRFTISRDNAKNTVYLQMNSLKPEDTAVYYCATDWSKVAGYTSYDYWGQGTQVTVSS | low polyreactivity
QVQLVESGGGLVQAGGSLRKSCAASGRIFSANAIGWYRKAPGTEWELVAAITCSGGSTYYADSVKGRFTISRDTAKNTVYLQMHSLKPEETAVYYCAAESAAYGGGTSDAGYESDYWGQGTQVTVSS | low polyreactivity
QVQLVESGGGLVQAGGSLRLSCAASGFTISAYAMGWYRQAPGKERELVAAITSGGGSTRYADSVKGRFTISRDNAKNTVYLQMNSLKPEDTAVYYCAARNHRYKFNYWGQGTQVTVSS | high polyreactivity
QVQLVESGGGLVQAGGSLRLSCAASGFTFYYYAMGWYRQAPGKERELVAAITWSGDSTNYADSVKGRFTISRDNAKNTVYLQMNSLKPEDTAVYYCATESYDSYGLYDYWGQGTQVTVSS | low polyreactivity
QVQLVESGGGLVKAGGSLRLSCAASGRTFLRNAMGWYRQAPGKERELVATITRGGSTYYADSVKGRFTISRDNAKNSVYLQMNSLKPEDTAVYYCAKDITGGFRRPDYGYWGQGTQVTVSS | low polyreactivity
QVQLEESGGGLVQAGGSLRLSCAASGRTFYHYAMGWYRQAPGKERELVAGITDGTITTDADSVKGRFTISRDNAKNTVYLQMNSLKPEDTAVYYCNVGYSDWWRSWAMDYWGQGTQVTVSS | high polyreactivity
